Assay results from article PMC11137118, “Liver and pancreatic-targeted interleukin-22 as a therapeutic for metabolic dysfunction-associated steatohepatitis” (Nature Communications, 2024).

Target: the molecule itself
Experiment: SEC + other: Western blot; HPLC-SEC: 50 uL of purified protein at 0.5 mg/mL on TSKgel 3000SWXL, 0.8 mL/min, PBS + 200 mM NaCl (pH 7.3), gel filtration standard for apparent molecular weight; Western blot conditions not told

| Protein | stoichiometry N |
| --- | --- |
| human IL-22 (hIL-22) (ligand, UniProt Q9GZX6 34-179, looked up, interleukin-22, human; codon optimised; the IL-22 stretch is then probably the mature protein; also called native hIL-22; native human IL-22; source: CHO-S, transiently transfected, secreted, purified (HisTrap Excel, HiTrap Q flow-through)) APISSHCRLDKSNFQQPYITNRTFMLAKEASLADNNTDVRLIGEKLFHGVSMSERCYLMKQVLNFTLEEVLFPQSDRFQPYMQEVVPFLARLSNRLSTCHIEGDDLHIQRNVQKLKDTVKKLGESGEIKAIGELDLLFMSLRNACI | 2 |
| hIL-22-GLP1 (human IL-22 fused to a GLP1 receptor binding protein) (other) APISSHCRLDKSNFQQPYITNRTFMLAKEASLADNNTDVRLIGEKLFHGVSMSERCYLMKQVLNFTLEEVLFPQSDRFQPYMQEVVPFLARLSNRLSTCHIEGDDLHIQRNVQKLKDTVKKLGESGEIKAIGELDLLFMSLRNACI | 2 |
